{
  "source": "IntAct's records for PubMed 26749241",
  "parents": {"B1": {"name": "Succinate dehydrogenase [ubiquinone] iron-sulfur subunit, mitochondrial (Homo sapiens), P21912 (parent)", "chain": "MAAVVALSLRRRLPATTLGGACLQASRGAQTAAATAPRIKKFAIYRWDPDKAGDKPHMQTYEVDLNKCGPMVLDALIKIKNEVDSTLTFRRSCREGICGSCAMNINGGNTLACTRRIDTNLNKVSKIYPLPHMYVIKDLVPDLSNFYAQYKSIEPYLKKKDESQEGKQQYLQSIEEREKLDGLYECILCACCSTSCPSYWWNGDKYLGPAVLMQAYRWMIDSRDDFTEERLAKLQDPFSLYRCHTIMNCTRTCPKGLNPGKAIAEIKKMMATYKEKKASV", "partner": "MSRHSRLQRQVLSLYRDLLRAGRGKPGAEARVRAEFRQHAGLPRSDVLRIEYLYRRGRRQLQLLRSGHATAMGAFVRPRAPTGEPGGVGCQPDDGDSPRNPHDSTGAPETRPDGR"}, "B2": {"name": "Succinate dehydrogenase assembly factor 1, mitochondrial (Homo sapiens), A6NFY7 (parent)", "chain": "B1 partner", "partner": "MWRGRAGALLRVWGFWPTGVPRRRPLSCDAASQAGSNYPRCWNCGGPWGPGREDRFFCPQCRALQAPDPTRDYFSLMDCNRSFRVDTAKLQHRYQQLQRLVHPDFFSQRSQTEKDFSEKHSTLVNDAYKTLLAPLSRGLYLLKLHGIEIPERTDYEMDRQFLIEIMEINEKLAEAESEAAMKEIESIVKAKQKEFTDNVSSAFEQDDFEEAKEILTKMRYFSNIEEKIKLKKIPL"}, "B3": {"name": "Succinate dehydrogenase assembly factor 1, mitochondrial (Homo sapiens), A6NFY7 (parent)", "chain": "B1 partner", "partner": "B1 chain"}},
  "data": [
    {"variants_of": "B1", "conditions": "with sdhf1_human SDHAF1, A6NFY7", "values": [
      {"variant": "MAAVVALSLRRRLPATTLGGACLQASRGAQTAAATAPRIKKFAIYRWDPDKAGDKPHMQTYEVDLNKCGPMVLDALIKIKNEVDSTLTFRRSCREGICGSCAMNINGGNTLACTRRIDTNLNKVSKIYPLPHMYVIKDLVPDLSNAAAAAASAEPYLKKKDESQEGKQQYLQSIEEREKLDGLYECILCACCSTSCPSYWWNGDKYLGPAVLMQAYRWMIDSRDDFTEERLAKLQDPFSLYRCHTIMNCTRTCPKGLNPGKAIAEIKKMMATYKEKKASV", "note": "[F146A;Y147A;Q149A;Y150A;K151A;I153A]", "effect of a mutation on the interaction": "disrupting interaction strength"},
      {"variant": "MAAVVALSLRRRLPATTLGGACLQASRGAQTAAATAPRIKKFAIYRWDPDKAGDKPHMQTYEVDLNKCGPMVLDALIKIKNEVDSTLTFRRSCREGICGSCAMNINGGNTLACTRRIDTNLNKVSKIYPLPHMYVIKDLVPDLSNAYAQYKSIEPYLKKKDESQEGKQQYLQSIEEREKLDGLYECILCACCSTSCPSYWWNGDKYLGPAVLMQAYRWMIDSRDDFTEERLAKLQDPFSLYRCHTIMNCTRTCPKGLNPGKAIAEIKKMMATYKEKKASV", "note": "[F146A]", "effect of a mutation on the interaction": "decreasing interaction strength"},
      {"variant": "MAAVVALSLRRRLPATTLGGACLQASRGAQTAAATAPRIKKFAIYRWDPDKAGDKPHMQTYEVDLNKCGPMVLDALIKIKNEVDSTLTFRRSCREGICGSCAMNINGGNTLACTRRIDTNLNKVSKIYPLPHMYVIKDLVPDLSNFYAQYKSIEPYLKKKDESQEGKQQYAAAIEEREKLDGLYECILCACCSTSCPSYWWNGDKYLGPAVLMQAYRWMIDSRDDFTEERLAKLQDPFSLYRCHTIMNCTRTCPKGLNPGKAIAEIKKMMATYKEKKASV", "note": "[L171A;Q172A;S173A]", "effect of a mutation on the interaction": "increasing interaction strength"}
    ]},
    {"variants_of": "B2", "conditions": "with hsc20_human HSCB", "values": [
      {"variant": "MSRHSRLQRQVLSLYRDLLRAGRGKPGAEARVRAEFRQHAGLPRSDVLRIEYAAARGRRQLQLLRSGHATAMGAFVRPRAPTGEPGGVGCQPDDGDSPRNPHDSTGAPETRPDGR", "effect of a mutation on the interaction": "with no effect"},
      {"variant": "MSRHSRLQRQVLSLYRDLLRAGRGKPGAEARVRAEFRQHAGLPRSDVLRIESLYRDGRRQLQLLRSGHATAMGAFVRPRAPTGEPGGVGCQPDDGDSPRNPHDSTGAPETRPDGR", "effect of a mutation on the interaction": "decreasing interaction strength"},
      {"variant": "MSRHSRLQRQVLSAAADLLRAGRGKPGAEARVRAEFRQHAGLPRSDVLRIEYLYRRGRRQLQLLRSGHATAMGAFVRPRAPTGEPGGVGCQPDDGDSPRNPHDSTGAPETRPDGR", "effect of a mutation on the interaction": "disrupting interaction strength"},
      {"variant": "MSRHSRLQRQVLYLYRRLLRAGRGKPGAEARVRAEFRQHAGLPRSDVLRIEYLYRRGRRQLQLLRSGHATAMGAFVRPRAPTGEPGGVGCQPDDGDSPRNPHDSTGAPETRPDGR", "effect of a mutation on the interaction": "disrupting interaction strength"},
      {"variant": "MSRHSRLQRQVLSVFKDLLRAGRGKPGAEARVRAEFRQHAGLPRSDVLRIEYLYRRGRRQLQLLRSGHATAMGAFVRPRAPTGEPGGVGCQPDDGDSPRNPHDSTGAPETRPDGR", "effect of a mutation on the interaction": "with no effect"},
      {"variant": "MSRHSRLQRQVLSLYRDLLRAGRGKPGAEARVRAEFRQHAGLPRSDVLRIEYLYRRRRRQLQLLRSGHATAMGAFVRPRAPTGEPGGVGCQPDDGDSPRNPHDSTGAPETRPDGR", "effect of a mutation on the interaction": "with no effect"},
      {"variant": "MSRHSRLQRQVLSLYRDLLRAGRGKPGAEARVRAEFRQHAGLPRSDVLRIEYLYPRGRRQLQLLRSGHATAMGAFVRPRAPTGEPGGVGCQPDDGDSPRNPHDSTGAPETRPDGR", "effect of a mutation on the interaction": "with no effect"}
    ]},
    {"variants_of": "B3", "conditions": "with sdhb_human SDHB", "values": [
      {"variant": "MSRHSRLQRQVLSLYRDLLRAGRGKPGAEARVRAEFRQHAGLPRSDVLRIEYLYRRRRRQLQLLRSGHATAMGAFVRPRAPTGEPGGVGCQPDDGDSPRNPHDSTGAPETRPDGR", "effect of a mutation on the interaction": "disrupting interaction strength"},
      {"variant": "MSRHSRLQRQVLSLYRDLLRAGRGKPGAEARVRAEFRQHAGLPRSDVLRIEYAAARGRRQLQLLRSGHATAMGAFVRPRAPTGEPGGVGCQPDDGDSPRNPHDSTGAPETRPDGR", "effect of a mutation on the interaction": "decreasing interaction strength"},
      {"variant": "MSRHSRLQRQVLSAAADLLRAGRGKPGAEARVRAEFRQHAGLPRSDVLRIEYLYRRGRRQLQLLRSGHATAMGAFVRPRAPTGEPGGVGCQPDDGDSPRNPHDSTGAPETRPDGR", "effect of a mutation on the interaction": "with no effect"},
      {"variant": "MSRHSRLQRQVLSLYRDLLRAGRGKPGAEARVRAEFRQHAGLPRSDVLRIEYLYPRGRRQLQLLRSGHATAMGAFVRPRAPTGEPGGVGCQPDDGDSPRNPHDSTGAPETRPDGR", "effect of a mutation on the interaction": "decreasing interaction strength"}
    ]},
    {"variants_of": "B3", "conditions": "with sdhb_human SDHB", "remark": "another data set of the same source", "values": [
      {"variant": "MSRHSRLQRQVLSLYRDLLRAGRGKPGAEARVRAEFRQHAGLPRSDVLRIEYLYRAAAAQLQLLRSGHATAMGAFVRPRAPTGEPGGVGCQPDDGDSPRNPHDSTGAPETRPDGR", "effect of a mutation on the interaction": "decreasing interaction strength"},
      {"variant": "MSRHSRLQRQVLSLYRDLLRAGRGKPGAEARVRAEFRQHAGLPRSDVLRIEYLYRRGRRQAQLAASGHATAMGAFVRPRAPTGEPGGVGCQPDDGDSPRNPHDSTGAPETRPDGR", "effect of a mutation on the interaction": "decreasing interaction strength"},
      {"variant": "MSRHSRLQRQVLSLYRDLLRAGRGKPGAEARVRAEFRQHAGLPRSDVLRIEYAAAAAAAQLQLLRSGHATAMGAFVRPRAPTGEPGGVGCQPDDGDSPRNPHDSTGAPETRPDGR", "effect of a mutation on the interaction": "disrupting interaction strength"},
      {"variant": "MSRHSRLQRQVLSLYRDLLRAGRGKPGAEARVRAEFRQHAGLPRSDVLRIEYAAARGRRQAQLAASGHATAMGAFVRPRAPTGEPGGVGCQPDDGDSPRNPHDSTGAPETRPDGR", "effect of a mutation on the interaction": "disrupting interaction strength"}
    ]}
  ]
}
